In article PMC6041754 (Journal of Molecular Cell Biology, 2017):
Substitutions are numbered along the chain they refer to. In names and notes the source's numbering stands.

B1: Mog1 without a tag (co-expressed with Ran from pRSFDuet-1) (natural protein)
chain: MEPTRDCPLFGGAFSAILPMGAIDVSDLRPVPDNQEVFCHPVTDQSLIVELLELQAHVRGEAAARYHFEDVGGVQGARAVHVESVQPLSLENLALRGRCQEAWVLSGKQQIAKENQQVAKDVTLHQALLRLPQYQTDLLLTFNQPPPDNRSSLGPENLSPAPWSLGDFEQLVTSLTLHDPNIFGPQ
modifications: isotope labels (2H, 15N, ILV methyl 13CH3) as the sample required
B2: Mog1^E50K,E53K (natural protein)
chain: B1 chain with E50K, E53K

Columns and labels:
Ran^Δ181–216 = Ran^Δ181–216 (human, UniProt P62826 1-180); assay: NMR
[1] = target: Ran (full-length, His6-tagged, from pET22b) (human, UniProt P62826 1-216); assay: SPR

| Binder | binding result (Ran^Δ181–216) | fold reduction of binding affinity against wild-type Mog1 [1] |
| --- | --- | --- |
| B1 | binds | – |
| B2 | – | ~100 fold |
